Experimental data published in patent US20040091855A1, “Method for production of antivirals by use of HIV-derived HR1 peptides, and trimers formed therefrom” (priority 2002, published 2004).
Residue numbers refer to the chain shown, from its start.

Key:
[1] = target: HR2 peptide having the amino acid sequence of SEQ ID NO:33 (HIV-1); assay: surface plasmon resonance (Biacore protein chip assay)
[2] = target: HIV-1 gp41 of strain HIV IIIB (on infectious virus) (HIV-1 strain HIVIIIB), P04578; assay: cell-based or functional assay
[3] = target: synthetic peptide having the amino acid sequence of SEQ ID NO:36 (trimers formed therefrom) (HIV-1 (HIVIIIB)); assay: fluorescence polarization competition; 50 nM trimers of SEQ ID NO:36, 0.2 nM fluorescein-labeled HR2 peptide as competitor

B1: synthetic peptide having the amino acid sequence of SEQ ID NO:35 (peptide)
peptide: QARQLVSGLVQQQNNILRALEATQHAVQALVWGVKQLQARVLALERYIK
modifications: not checked
Q: How did the Kd [1] turn out when B1 was run?
A: 21.8 nM

Q: What about the Antiviral activity against HIV IIIB, IC50 (MAGI/cMAGI infectivity assay) [2] of the same binder?
A: 0.14 µg/mL

Q: What about the Antiviral activity against HIV IIIB, IC90 (MAGI/cMAGI infectivity assay) [2] of the same binder?
A: 0.69 µg/mL

B2: synthetic peptide having the amino acid sequence of SEQ ID NO:37 (peptide)
peptide: B1 peptide with K35R
modifications: not checked
Q: For B2, which Antiviral activity against HIV IIIB, IC50 (MAGI/cMAGI infectivity assay) [2] is on record?
A: < 0.78 µg/mL

B3: synthetic peptide having the amino acid sequence of SEQ ID NO:38 (peptide)
peptide: QARQLLSGIVQQQNNLLRAIEATQHAVQALVWGVKQLQARVLALERYIKDQ
modifications: not checked
Q: B3 was tested. Which Antiviral activity against HIV IIIB, IC50 (MAGI/cMAGI infectivity assay) [2] did it give?
A: 0.18 µg/mL

Q: And the Antiviral activity against HIV IIIB, IC90 (MAGI/cMAGI infectivity assay) [2]?
A: 0.88 µg/mL

B4: synthetic peptide having the amino acid sequence of SEQ ID NO:39 (peptide)
peptide: QARQLVSGLVQQQNNILRALEAQQHALQATVWGIKQLQARVLALERYIKDQ
modifications: not checked
Q: B4 was tested. Which Antiviral activity against HIV IIIB, IC50 (MAGI/cMAGI infectivity assay) [2] did it give?
A: 0.26 µg/mL

Q: What about the Antiviral activity against HIV IIIB, IC90 (MAGI/cMAGI infectivity assay) [2] of the same binder?
A: 1.2 µg/mL

B5: peptide having the amino acid sequence of SEQ ID NO:41 (peptide)
peptide: B1 peptide with A26L, A29L
modifications: not checked
Q: Which results are given for B5?
A: Antiviral activity against HIV IIIB, IC50 (MAGI/cMAGI infectivity assay) [2]: 3.89 µg/mL; Antiviral activity against HIV IIIB, IC90 (MAGI/cMAGI infectivity assay) [2]: 14.5 µg/mL

B6: HR1 peptide of native sequence having the amino acid sequence of SEQ ID NO:27 (peptide)
peptide: QQQNNLLRAIEAQQHLLQLTVWGIKQLQARILAVERYLKDQ
modifications: not checked
Q: With B6 as the binder, how does the Antiviral activity vs. HIV IIIB, IC50 (MAGI/cMAGI infectivity assay) [2] read?
A: 4.69 µg/mL

Q: And the Antiviral activity vs. HIV IIIB, IC90 (MAGI/cMAGI infectivity assay) [2]?
A: 23.2 µg/mL

B7: synthetic peptide having the amino acid sequence of SEQ ID NO:29 (peptide)
peptide: B6 peptide with V21A
modifications: not checked
Q: For B7, which Antiviral activity vs. HIV IIIB, IC50 (MAGI/cMAGI infectivity assay) [2] is on record?
A: 2.81 µg/mL

Q: And the Antiviral activity vs. HIV IIIB, IC90 (MAGI/cMAGI infectivity assay) [2]?
A: 5.86 µg/mL

B8: synthetic peptide having the amino acid sequence of SEQ ID NO:43 (peptide)
peptide: B6 peptide with W22F
modifications: not checked
Q: Which Antiviral activity vs. HIV IIIB, IC50 (MAGI/cMAGI infectivity assay) [2] does the source give for B8 here?
A: 1.34 µg/mL

Q: What about the Antiviral activity vs. HIV IIIB, IC90 (MAGI/cMAGI infectivity assay) [2] of the same binder?
A: 3.81 µg/mL

B9: HR2 peptide having the amino acid sequence of SEQ ID NO:33 (peptide)
peptide: WMEWDREINNYTSLIHSLIEESQNQQEKNEQELLEL
modifications: not checked
Q: B9 was tested. Which IC50 [3] did it give?
A: 68 nM
